Target: T1, PGIS–CFP (human, UniProt Q16647 1-500)
T1 sequence (looked up): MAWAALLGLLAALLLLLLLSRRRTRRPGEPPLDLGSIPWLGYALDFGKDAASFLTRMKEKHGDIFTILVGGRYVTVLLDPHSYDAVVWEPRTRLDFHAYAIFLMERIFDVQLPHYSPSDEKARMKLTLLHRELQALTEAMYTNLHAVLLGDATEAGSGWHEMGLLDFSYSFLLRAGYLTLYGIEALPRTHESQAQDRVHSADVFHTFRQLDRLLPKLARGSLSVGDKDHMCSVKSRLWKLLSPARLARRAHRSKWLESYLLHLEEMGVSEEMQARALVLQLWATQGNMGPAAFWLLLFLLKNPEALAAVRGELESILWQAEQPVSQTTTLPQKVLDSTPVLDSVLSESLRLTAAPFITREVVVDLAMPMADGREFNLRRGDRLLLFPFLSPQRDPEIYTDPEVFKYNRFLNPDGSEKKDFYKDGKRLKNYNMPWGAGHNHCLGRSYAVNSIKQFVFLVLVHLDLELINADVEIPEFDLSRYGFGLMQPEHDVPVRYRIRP
Assay: FRET or BRET

B1: COX-2-RFP (enzyme, human, UniProt P35354 18-604, looked up)
chain: ANPCCSHPCQNRGVCMSVGFDQYKCDCTRTGFYGENCSTPEFLTRIKLFLKPTPNTVHYILTHFKGFWNVVNNIPFLRNAIMSYVLTSRSHLIDSPPTYNADYGYKSWEAFSNLSYYTRALPPVPDDCPTPLGVKGKKQLPDSNEIVEKLLLRRKFIPDPQGSNMMFAFFAQHFTHQFFKTDHKRGPAFTNGLGHGVDLNHIYGETLARQRKLRLFKDGKMKYQIIDGEMYPPTVKDTQAEMIYPPQVPEHLRFAVGQEVFGLVPGLMMYATIWLREHNRVCDVLKQEHPEWGDEQLFQTSRLILIGETIKIVIEDYVQHLSGYHFKLKFDPELLFNKQFQYQNRIAAEFNTLYHWHPLLPDTFQIHDQKYNYQQFIYNNSILLEHGITQFVESFTRQIAGRVAGGRNVPPAVQKVSQASIDQSRQMKYQSFNEYRKRFMLKPYESFEELTGEKEMSAELEALYGDIDAVELYPALLVEKPRPDAIFGETMVEVGAPFSLKGLMGNVICSPAYWKPSTFGGEVGFQIINTASIQSLICNNVKGCPFTSFSVPDPELIKTVTINASSSRSGLDDINPTVLLKERSTEL
Question: How did the “FRET intensity relative to COX-1-RFP with PGIS–CFP” value turn out when B1 was run?
Answer: 2 fold

Reference: publication PMC3046773 (Life sciences, 2010)
